{
  "source": "paper PMC8295500",
  "about": "“Co-Immobilized Capillary Enzyme Reactor Based on Beta-Secretase1 and Acetylcholinesterase: A Model for Dual-Ligand Screening” (Frontiers in Chemistry, 2021)",
  "proteins": {"B1": {"name": "acetylcholinesterase (huAChE) (Homo sapiens) (protein)", "chain": "EGREDAELLVTVRGGRLRGIRLKTPGGPVSAFLGIPFAEPPMGPRRFLPPEPKQPWSGVVDATTFQSVCYQYVDTLYPGFEGTEMWNPNRELSEDCLYLNVWTPYPRPTSPTPVLVWIYGGGFYSGASSLDVYDGRFLVQAERTVLVSMNYRVGAFGFLALPGSREAPGNVGLLDQRLALQWVQENVAAFGGDPTSVTLFGESAGAASVGMHLLSPPSRGLFHRAVLQSGAPNGPWATVGMGEARRRATQLAHLVGCPPGGTGGNDTELVACLRTRPAQVLVNHEWHVLPQESVFRFSFVPVVDGDFLSDTPEALINAGDFHGLQVLVGVVKDEGSYFLVYGAPGFSKDNESLISRAEFLAGVRVGVPQVSDLAAEAVVLHYTDWLHPEDPARLREALSDVVGDHNVVCPVAQLAGRLAAQGARVYAYVFEHRASTLSWPLWMGVPHGYEIEFIFGIPLDPSRNYTAEEKIFAQRLMRYWANFARTGDPNEPRDPKAPQWPPYTAGAQQYVSLDLRPLEVRRGLRAQACAFWNRFLPKLLSATDTLDEAERQWKAEFHRWSSYMVHWKNQFDHYSKQDRCSDL", "notes": "human recombinant, expressed in HEK 293 cells; immobilized on fused silica capillary"}},
  "substrate": "CC(=O)OCC[N+](C)(C)C",
  "assay": "purified protein",
  "format": "biochemical, Homo sapiens",
  "data": [
    {"protein": "B1", "values": [
      {"measurement": "Km", "result": "23.3 ± 1", "unit": "µM"}
    ]}
  ]
}
